This passage reports Maximum MFI results from patent US20220153819A1.

This assay addresses human GITR on Jurkat/hGITR/hCD20 cells (human) (UniProt Q9Y5U5). Nature of the assay: flow cytometry on Jurkat/hGITR/hCD20 cells. For orientation: A flow cytometer gives signals particle by particle.

Sequence of human GITR on Jurkat/hGITR/hCD20 cells (human) (Q9Y5U5 26-241): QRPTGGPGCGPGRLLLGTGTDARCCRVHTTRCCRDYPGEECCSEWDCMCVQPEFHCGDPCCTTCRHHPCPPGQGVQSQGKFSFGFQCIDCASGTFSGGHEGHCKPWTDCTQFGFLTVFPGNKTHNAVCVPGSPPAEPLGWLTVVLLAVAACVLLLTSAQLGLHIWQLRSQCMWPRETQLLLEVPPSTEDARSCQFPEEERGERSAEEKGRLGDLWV

With REGN1932, IgG1 isotype control antibody, the Maximum MFI is 39900 MFI.
